Data reported in patent US10117886B2, “Hyaluronidase and a low density second PEG layer on the surface of therapeutic-encapsulated nanoparticles to enhance nanoparticle diffusion and circulation” (priority 2014, dated 2018).
Where a name gives a salt, the structure may show the parent alone. Read-outs that look alike come from different tables or passages of the source.

How the values were obtained:
4T1 tumors = experiment: Antitumor efficacy in mouse 4T1 syngeneic breast tumor model; type: in vivo; details: 2 mg/kg DOX; (MST treated/MST control −1)×100
Description: Efficacy of the nanoparticles produced in Example 2 was evaluated in a mouse 4T1 syngeneic breast tumor model, in which the host BALB/c mouse is immune-competent, and the tumor growth and metastatic spread of 4T1 cells closely mimic human breast cancer. Female BALB/c mice at 6 weeks were ordered and within a one-week stay, 50 μL of 1×10^7 4 T1 cells/mL in PBS was injected at the mammary fat pad on the right flank of the mice. Tumor size was calculated using V=0.5×width^2×length.
The nanoparticles with encapsulated DOX produced in Example 2 were used to treat tumors in a mouse 4T1 syngeneic breast tumor model BALB/c mice. The mice were randomly assigned into 4 groups and injected with saline, free DOX in saline, DOX-PLGA-PEG-NPs and DOX-PLGA-PEG-PH20-NPs (PH20 activity of DOX-PLGA-PEG-PH20-NPs is 500 U/mouse) at 2 mg/kg mice of DOX at 9, 11, 14, 17, 20 days after inoculation of 4T1 cells in the mice. The tumors reached a size of 150-250 mm^3 at day 9 before treatment. Tumor sizes were monitored throughout the whole study (FIG. 14A). The survival rate was studied based on the number of mice in each group that survived over time. MST (day) was defined as the time at which half of the mice had died.
The percentage ILS (%) was calculated using the following equation: ILS (%)=[(MST of treated group/MST of control group) −1]*100. […]

[1] = tested on: pericellular HA matrix of 4T1 cells; experiment: Degradation of pericellular HA of 4T1 cells (HA staining, RBC exclusion assay); type: cell-based, mouse
Description: The nanoparticles produced in Example 2 were tested on tumor cell line 4T1, which synthesizes HA and forms a layer of HA matrix around the cells. 4T1 cells were maintained in a RPMI-1640 medium (ATCC) containing 10% fetal bovine serum in 5% CO2 in an incubator at 37° C. 4T1 cells were cultured on round glass coverslips in a 12-well plate for one day to reach 70% confluency before treatment with the nanoparticles. DiD-labeled PLGA-PEG-NPs (no PH20 activity) and DiD-labeled PLGA-PEG-PH20-NPs (conjugated 10 U/mL PH20 activity) were used for this test. The amount of nanoparticles in all samples was equalized via fluorescence intensity. […]
The 4T1 cells were then washed and fixed and observed under a confocal microscope (Olympus IX81, 60×, C.A.=80 μm) with 405 nm and 635 nm lasers for DAPI and DiD respectively. […] The total fluorescence intensity of DiD was quantified via Image J and averaged by the number of cells.
RBCs were collected fresh from mice and washed three times with PBS before being resuspended in 2% formaldehyde in PBS for fixation of the RBCs overnight at room temperature. […] The areas of exclusion (no RBCs) were quantified through ImageJ. […]

[2] = tested on: pericellular HA layer around PC3 cells; experiment: Degradation of pericellular HA layer around PC3 cells by free PH20; type: cell-based, human; details: 1000 U of free PH20 for 1 h
[3] = free PH20, cited from earlier work

| Molecule | percentage increased life span ILS (%) (4T1 tumors) | amount of HA around 4T1 cells, RBC exclusion ([1]; 1000 U/mL of PH20, 2 h, 37° C.) | degradation of pericellular HA layer around 4T1 cells ([1]; 3000 U of free PH20 for 1 h) | degradation of pericellular HA layer [2] | circulation half-life [3] | circulation half-life ([3]; listed as PH20) [min] |
| --- | --- | --- | --- | --- | --- | --- |
| COc1cccc2c1C(=O)c1c(O)c3c(c(O)c1C2=O)C[C@@](O)(C(=O)CO)C[C@@H]3O[C@H]1C[C@H](N)[C@H](O)[C@H](C)O1 [Free DOX, Doxorubicin Hydrochloride salt] | 10 |  |  |  |  |  |
| free PH20: recombinant human hyaluronidase PH20 obtained from Halozyme, Inc, unconjugated (protein, UniProt P38567 36-490, looked up) Hyaluronidase PH-20: LNFRAPPVIPNVPFLWAWNAPSEFCLGKFDEPLDMSLFSFIGSPRINATGQGVTIFYVDRLGYYPYIDSITGVTVNGGIPQKISLQDHLDKAKKDITFYMPVDNLGMAVIDWEEWRPTWARNWKPKDVYKNRSIELVQQQNVQLSLTEATEKAKQEFEKAGKDFLVETIKLGKLLRPNHLWGYYLFPDCYNHHYKKPGYNGSCFNVEIKRNDDLSWLWNESTALYPSIYLNTQQSPVAATLYVRNRVREAIRVSKIPDAKSPLPVFAYTRIVFTDQVLKFLSQDELVYTFGETVALGASGIVIWGTLSIMRSMKSCLLLDNYMETILNPYIINVTLAAKMCSQVLCQEQGVCIRKNWNSSDYLHLNPDNFAIQLEKGGKFTVRGKPTLEDLEQFSEKFYCSCYSTLSCKEKADVKDTDAVDVCIADGVCIDAFLKPPMETEEPQIFYNASPSTLS |  | reduced to a low level that could no longer block RBCs | sufficient to degrade the pericellular HA layer around 4T1 cells | sufficient to degrade the pericellular HA layer around PC3 cells | less than 3 min | 3 |
